Data as given in patent US20250011363A1, “OPTIMIZED SHORTENED PEPTIDE THAT BINDS TO ACETYLCHOLINE RECEPTOR, AND USE THEREOF” (SKINMED CO., LTD., priority 2021, published 2025).

Each substance was assayed against acetylcholine receptor (Homo sapiens, UniProt P02708) (assay: SPR binding affinity (RU) of optimized 5mer/6mer/7mer peptides, Examples 6-7). Conditions: SPR, Resonance Units; peptides tested at 10 μM; 6mer-2 Bottom sequence.
How it was run: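 Using surface plasmon resonance, binding to the acetylcholine receptor was measured for each sequence at a single 10 μM concentration. Values are response units.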

Sequence of acetylcholine receptor (P02708 21-457): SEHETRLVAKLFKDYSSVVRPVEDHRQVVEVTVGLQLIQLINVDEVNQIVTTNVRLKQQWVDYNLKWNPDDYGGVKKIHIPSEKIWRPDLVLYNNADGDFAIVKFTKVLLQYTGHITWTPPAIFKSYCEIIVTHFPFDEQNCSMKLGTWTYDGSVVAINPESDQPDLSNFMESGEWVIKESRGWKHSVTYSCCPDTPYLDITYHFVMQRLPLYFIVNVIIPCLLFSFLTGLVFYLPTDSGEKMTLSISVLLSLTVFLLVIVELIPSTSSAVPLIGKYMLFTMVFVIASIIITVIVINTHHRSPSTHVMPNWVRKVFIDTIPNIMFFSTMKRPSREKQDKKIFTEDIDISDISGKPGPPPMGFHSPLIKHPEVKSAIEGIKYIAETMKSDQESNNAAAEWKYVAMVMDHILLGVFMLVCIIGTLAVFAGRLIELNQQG

| Substance | Binding affinity |
| --- | --- |
| 6mer-2-636 (KMAPKR) | 21 Ru |
| 6mer-2-637 (RPPVRK) | 32 Ru |
| 6mer-2-638 (RCWAKR) | 30 Ru |
| 6mer-2-639 (KHTVKK) | 23 Ru |
| 6mer-2-640 (KFKKKR) | 21 Ru |
| 6mer-2-641 (REEFRR) | 12 Ru |
| 6mer-2-642 (KTENKK) | 16 Ru |
| 6mer-2-643 (KANPKK) | 12 Ru |
| 6mer-2-644 (REPNRR) | 12 Ru |
| 6mer-2-645 (RIKVKK) | 15 Ru |
| 6mer-2-646 (RAAPRR) | 32 Ru |
| 6mer-2-647 (KTEPKR) | 19 Ru |
| 6mer-2-648 (RYPDRK) | 23 Ru |
| 6mer-2-649 (KFDVRK) | 31 Ru |
| 6mer-2-650 (RFKARK) | 18 Ru |
| 6mer-2-651 (KNADRR) | 21 Ru |
| 6mer-2-652 (RTTMRK) | 16 Ru |
| 6mer-2-653 (KIEMKR) | 20 Ru |
| 6mer-2-654 (RMPEKR) | 20 Ru |
| 6mer-2-655 (KIWFRR) | 31 Ru |
| 6mer-2-656 (KADPRR) | 11 Ru |
| 6mer-2-657 (RKHERK) | 32 Ru |
| 6mer-2-658 (RYWVKK) | 23 Ru |
| 6mer-2-659 (KIPNKR) | 22 Ru |

| Substance | Binding affinity |
| --- | --- |
| 6mer-2-660 (RHKDRK) | 16 Ru |
| 6mer-2-661 (RMKAKK) | 29 Ru |
| 6mer-2-662 (KAHPKK) | 11 Ru |
| 6mer-2-663 (KFAGRR) | 24 Ru |
| 6mer-2-664 (KCCWKK) | 11 Ru |
| 6mer-2-665 (KCAERR) | 18 Ru |
| 6mer-2-666 (KPMDRR) | 25 Ru |
| 6mer-2-667 (KHDMRR) | 25 Ru |
| 6mer-2-668 (RFCNKK) | 13 Ru |
| 6mer-2-669 (KNMWRK) | 15 Ru |
| 6mer-2-670 (RKWHKR) | 33 Ru |
| 6mer-2-671 (RDWIRR) | 27 Ru |
| 6mer-2-672 (KIDDRK) | 20 Ru |
| 6mer-2-673 (RFCGRK) | 23 Ru |
| 6mer-2-674 (KKWERK) | 26 Ru |
| 6mer-2-675 (RMKWRK) | 14 Ru |
| 6mer-2-676 (KCTAKK) | 14 Ru |
| 6mer-2-677 (RENWKK) | 28 Ru |
| 6mer-2-678 (KEWWRR) | 32 Ru |
| 6mer-2-679 (RYSAKK) | 20 Ru |
| 6mer-2-680 (KNHGKR) | 15 Ru |
| 6mer-2-681 (RDTWRR) | 33 Ru |
| 6mer-2-682 (RNMERR) | 33 Ru |
| 6mer-2-683 (KTEIRK) | 33 Ru |

| Substance | Binding affinity |
| --- | --- |
| 6mer-2-684 (RYTMKK) | 14 Ru |
| 6mer-2-685 (KFHNRK) | 15 Ru |
| 6mer-2-686 (KTWEKK) | 21 Ru |
| 6mer-2-687 (KADGRK) | 16 Ru |
| 6mer-2-688 (RPMFRK) | 13 Ru |
| 6mer-2-689 (RDKERR) | 24 Ru |
| 6mer-2-690 (KFTMRK) | 13 Ru |
| 6mer-2-691 (RHKMRK) | 15 Ru |
| 6mer-2-692 (KYTNRR) | 29 Ru |
| 6mer-2-693 (KNTIRR) | 16 Ru |
| 6mer-2-694 (KDSIRK) | 22 Ru |
| 6mer-2-695 (KCWWRR) | 28 Ru |
| 6mer-2-696 (KFTKKK) | 20 Ru |
| 6mer-2-697 (KCAVKK) | 19 Ru |
| 6mer-2-698 (KCEDKK) | 27 Ru |
| 6mer-2-699 (KNAGKR) | 23 Ru |
| 6mer-2-700 (RPWHKK) | 15 Ru |
| 6mer-2-701 (KTWAKR) | 23 Ru |
| 6mer-2-702 (KEMIKR) | 18 Ru |
| 6mer-2-703 (RTMHKR) | 14 Ru |
| 6mer-2-704 (KDWHRK) | 20 Ru |
| 6mer-2-705 (RENFKK) | 11 Ru |
| 6mer-2-706 (KFTDRK) | 23 Ru |
| 6mer-2-707 (RTWKRK) | 21 Ru |

| Substance | Binding affinity |
| --- | --- |
| 6mer-2-708 (RAWVKK) | 29 Ru |
| 6mer-2-709 (RIWPKR) | 31 Ru |
| 6mer-2-710 (RNKKKK) | 14 Ru |
| 6mer-2-711 (KECGRR) | 29 Ru |
| 6mer-2-712 (KIPHRR) | 29 Ru |
| 6mer-2-713 (RASWRR) | 24 Ru |
| 6mer-2-714 (KIDVRK) | 30 Ru |
| 6mer-2-715 (RATHRK) | 32 Ru |
| 6mer-2-716 (RTWKKR) | 18 Ru |
| 6mer-2-717 (KCPGKR) | 15 Ru |
| 6mer-2-718 (KYTFKR) | 12 Ru |
| 6mer-2-719 (KIKPRR) | 29 Ru |
| 6mer-2-720 (RATNRK) | 29 Ru |
| 6mer-2-721 (RHSKKK) | 26 Ru |
| 6mer-2-722 (RNEHRR) | 21 Ru |
| 6mer-2-723 (KEDMKR) | 23 Ru |
| 6mer-2-724 (KYTMKK) | 24 Ru |
| 6mer-2-725 (KAHMKK) | 25 Ru |
| 6mer-2-726 (KHHKKK) | 25 Ru |
| 6mer-2-727 (RDMIKR) | 11 Ru |
| 6mer-2-728 (RMTMKK) | 23 Ru |
| 6mer-2-729 (RCPDKR) | 30 Ru |
| 6mer-2-730 (RNTHKR) | 26 Ru |
| 6mer-2-731 (KASWKK) | 19 Ru |

| Substance | Binding affinity |
| --- | --- |
| 6mer-2-732 (KPTWRK) | 24 Ru |
| 6mer-2-733 (RTPARK) | 29 Ru |
| 6mer-2-734 (KHCHRR) | 17 Ru |
| 6mer-2-735 (KMNAKK) | 21 Ru |
| 6mer-2-736 (KNNHKK) | 29 Ru |
| 6mer-2-737 (KDSVRR) | 19 Ru |
| 6mer-2-738 (KPWFKK) | 29 Ru |
| 6mer-2-739 (RIHAKK) | 17 Ru |
| 6mer-2-740 (KIDIRR) | 12 Ru |
| 6mer-2-741 (KNEKKR) | 30 Ru |
| 6mer-2-742 (KNNWRR) | 32 Ru |
| 6mer-2-743 (KHTMKR) | 18 Ru |
| 6mer-2-744 (KDHPRK) | 19 Ru |
| 6mer-2-745 (KNTERR) | 17 Ru |
| 6mer-2-746 (RIKVRK) | 26 Ru |
| 6mer-2-747 (RANFRR) | 29 Ru |
| 6mer-2-748 (RFDKKR) | 28 Ru |
| 6mer-2-749 (KMWKRK) | 20 Ru |
| 6mer-2-750 (RKCVKR) | 29 Ru |
| 6mer-2-751 (RPHWKR) | 12 Ru |
| 6mer-2-752 (KINWRR) | 29 Ru |
| 6mer-2-753 (RYEHRR) | 18 Ru |
| 6mer-2-754 (KADGRR) | 12 Ru |
| 6mer-2-755 (RYNDKK) | 18 Ru |

| Substance | Binding affinity |
| --- | --- |
| 6mer-2-756 (KPTNRK) | 26 Ru |
| 6mer-2-757 (RIPNKR) | 19 Ru |
| 6mer-2-758 (RFSFKK) | 18 Ru |
| 6mer-2-759 (RFDEKK) | 18 Ru |
| 6mer-2-760 (KIPVKK) | 15 Ru |
| 6mer-2-761 (RTEPRK) | 29 Ru |
| 6mer-2-762 (KFEERK) | 24 Ru |
| 6mer-2-763 (KMKERR) | 19 Ru |
| 6mer-2-764 (RNAVKK) | 31 Ru |
| 6mer-2-765 (KHSPRK) | 23 Ru |
| 6mer-2-766 (RPTFRK) | 23 Ru |
| 6mer-2-767 (RICGRK) | 13 Ru |
| 6mer-2-768 (KYMGRK) | 22 Ru |
| 6mer-2-769 (RCPFRK) | 13 Ru |
| 6mer-2-770 (KPNMKK) | 24 Ru |
| 6mer-2-771 (KITARR) | 26 Ru |
| 6mer-2-772 (RHPAKK) | 15 Ru |
| 6mer-2-773 (KPDARR) | 11 Ru |
| 6mer-2-774 (KFDARK) | 17 Ru |
| 6mer-2-775 (KMSMKK) | 26 Ru |
| 6mer-2-776 (RFPWRK) | 12 Ru |
| 6mer-2-777 (KNDVRR) | 31 Ru |
| 6mer-2-778 (RNAPKK) | 21 Ru |
| 6mer-2-779 (KAAHRR) | 13 Ru |

| Substance | Binding affinity |
| --- | --- |
| 6mer-2-780 (KITIRK) | 31 Ru |
| 6mer-2-781 (KTMNRK) | 28 Ru |
| 6mer-2-782 (KPWPKR) | 18 Ru |
| 6mer-2-783 (RDMVRK) | 32 Ru |
| 6mer-2-784 (KAEWRK) | 26 Ru |
| 6mer-2-785 (RHCHRR) | 31 Ru |
| 6mer-2-786 (RMEMRK) | 30 Ru |
| 6mer-2-787 (RIWHKK) | 19 Ru |
| 6mer-2-788 (KKEKKK) | 30 Ru |
| 6mer-2-789 (KNENRK) | 24 Ru |
| 6mer-2-790 (RCAGRR) | 23 Ru |
| 6mer-2-791 (KNMNRK) | 27 Ru |
| 6mer-2-792 (RAEDKR) | 13 Ru |
| 6mer-2-793 (RMHKKR) | 29 Ru |
| 6mer-2-794 (KAEMRR) | 19 Ru |
| 6mer-2-795 (RTHNKR) | 16 Ru |
| 6mer-2-796 (RMMARR) | 32 Ru |
| 6mer-2-797 (RHCIKR) | 19 Ru |
